By stoichiometry N is commonly meant a count of units in the complex or per binding partner. As usually defined, the Kd is a measure of binding affinity in units of concentration. Higher therefore signals lower affinity.

The record followed here is PMC5483177 (Cell reports, 2016).

Positions count from the first letter of the chain named. Names and notes keep the numbering of the source. Read-outs that look alike come from different tables or passages of the source.

Sequences and labels used below:
B1: WAH-1 (residues 214 to 700), His-tagged (domain or fragment, C. elegans, UniProt Q9U229 214-700, looked up)
chain: SEQQSMKPSESTEENTTTTSADGLLHCEYVIIGSGTAAYYASLSIRAKQAEAKVLMIGEEPELPYNRPPLSKELWWYGDETSATKLAYTPLSGKKRDIFYEVDGFFVSPEDLPKAVHGGVALLRGRKAVKICEEDKKVILEDGTTIGYDKLLIATGVRPKKEQVFEEASEEAKQKITYFHYPADFKRVERGLADKSVQKVTIIGNGLLASELSYSIKRKYGENVEVHQVFEEKYPAEDILPEHIAQKSIEAIRKGGVDVRAEQKVEGVRKCCKNVVLKLSDGSELRTDLVVVATGEEPNSEIIEASGLKIDEKLGGVRADKCLKVGENVWAAGAIATFEDGVLGARRVSSWENAQISGRLAGENMATAAADGKSEGKAFWYQPSFFTKFAPHLHINAIGKCDSSLETVSVHAEPDKDTPLEKAVVFYKSKEDGSIVGVLLLNVFGPSLDVARRIIDDRKKVDEYKEIAKLFPLYDPVKSDEDDAKSA
B2: CPS-6(H148A) (residues 63-305), His-tagged (enzyme, C. elegans, UniProt Q95NM6 63-305, looked up)
chain: PSRSAEIMKHGYPGFTNVRTYEDFVLSYDYKTRTAHWVCEHLTPERLKHAEGVDRKLCEFKPDITFPQKFLSQNTDYKCSGFDRGALAAAGNHRKSQLAVDQTFYLSNMSPQVGRGFNRDKWNDLEMHCRRVAKKMINSYIITGPLYLPKLEGDGKKYIKYQVIGDNNVAVPTHFFKVALFEVTPGKFELESYILPNAVIEDTVEISKFHVPLDAVERSAGLEIFARLDPKSIVKENGAKKGG
B3: wild-type CPS-6 (residues 63-305), His-tagged (enzyme, C. elegans, UniProt Q95NM6 63-305, looked up)
chain: B2 chain with A86H

Series [1] deals with the molecule itself. Description: SEC.
The target in series [2] is B2. Description: other fluorescence titration.
In series [3] the target is B1. Description: other fluorescence titration.
Series [4] deals with the molecule itself. Briefly: SEC. This is another data set of the same source. In general terms: SEC sorts molecules by how far they enter the pores of the column.

B1: the “stoichiometry N” value in the series “SEC [1]” worked out at 2; in series [2] it was 1.

As to B2, in series [3], the Kd came out at 69.8 ± 2.8 nM. In the series “SEC [4]”, the “stoichiometry N” value amounted to 2.

For the molecule B3, the “stoichiometry N” value in “SEC [4]” worked out at 2.
